Source: paper PMC5973842

Assays:
eNP WT (Ebola virus) = test: fluorescence polarization
eNP-2 (Ebola virus) = test: fluorescence polarization
eNP-3 (Ebola virus) = test: fluorescence polarization
[1] = target: FITC-labeled eVP35 NPBP (Ebola virus); test: fluorescence polarisation

| Substance | Kd (eNP WT (Ebola virus)) | Kd (eNP-2 (Ebola virus)) | Kd (eNP-3 (Ebola virus)) | Kd [1] |
| --- | --- | --- | --- | --- |
| 20 nt ssRNA | 13 nM | 68 nM | 15 nM | – |
| Ebola virus nucleoprotein, full-length wildtype construct (from UniProt P18272 1-739) (natural protein) | – | – | – | 10.6 nM |
| eNP-2 (Ebola virus nucleoprotein N-terminal construct lacking the first 24 residues) (domain or fragment) | – | – | – | 1.9 nM |
| eNP-3 (Ebola virus nucleoprotein N-terminal construct that includes the first 24 residues) (domain or fragment) | – | – | – | 12.8 nM |
